From IntAct's records for PubMed 17070805

Target: T1, npl4_human NPLOC4 (UniProt Q8TAT6)
T1 sequence: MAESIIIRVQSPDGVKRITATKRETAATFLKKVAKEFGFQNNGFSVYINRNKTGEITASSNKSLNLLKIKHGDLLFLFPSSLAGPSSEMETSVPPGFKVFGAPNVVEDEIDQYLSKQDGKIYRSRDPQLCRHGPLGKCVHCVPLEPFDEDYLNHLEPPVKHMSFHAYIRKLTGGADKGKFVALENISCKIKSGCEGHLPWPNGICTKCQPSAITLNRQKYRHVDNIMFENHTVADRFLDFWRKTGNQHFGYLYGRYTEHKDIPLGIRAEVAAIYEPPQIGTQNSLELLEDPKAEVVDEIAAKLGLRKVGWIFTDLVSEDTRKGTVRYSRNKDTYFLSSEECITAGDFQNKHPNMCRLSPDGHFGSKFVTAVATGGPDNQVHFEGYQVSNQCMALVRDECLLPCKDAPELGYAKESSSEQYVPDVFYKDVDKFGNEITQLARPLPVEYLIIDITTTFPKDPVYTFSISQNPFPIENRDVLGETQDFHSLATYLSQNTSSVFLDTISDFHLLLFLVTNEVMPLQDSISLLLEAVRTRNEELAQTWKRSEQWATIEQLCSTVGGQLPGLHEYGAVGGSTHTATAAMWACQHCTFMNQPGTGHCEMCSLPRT

**Q.** With “Polyubiquitin-C (Homo sapiens) (from UniProt P0CG48) I44A” as the substance, how does the “effect of a mutation on the interaction” value read?
**A.** The value was “decreasing interaction”.
